Reference: patent US20200199241A1 (Chugai, published 2020)
Like-named read-outs stand apart in the source and are kept apart here.

T1: human FcγRIIa(R) (human, UniProt P12318 36-217)
T1 construct: also called hFcgRIIa(R); FcγRIIa type R
T1 chain: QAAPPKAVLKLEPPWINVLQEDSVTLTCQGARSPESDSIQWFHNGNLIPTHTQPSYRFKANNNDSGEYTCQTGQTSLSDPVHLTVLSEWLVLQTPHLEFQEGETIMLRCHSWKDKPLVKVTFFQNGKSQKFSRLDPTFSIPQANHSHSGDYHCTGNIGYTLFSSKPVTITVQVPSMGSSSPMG

T2: human FcγRIIa(H) (human, UniProt P12318 36-217)
T2 construct: also called hFcgRIIa(H); FcγRIIa type H
T2 sequence: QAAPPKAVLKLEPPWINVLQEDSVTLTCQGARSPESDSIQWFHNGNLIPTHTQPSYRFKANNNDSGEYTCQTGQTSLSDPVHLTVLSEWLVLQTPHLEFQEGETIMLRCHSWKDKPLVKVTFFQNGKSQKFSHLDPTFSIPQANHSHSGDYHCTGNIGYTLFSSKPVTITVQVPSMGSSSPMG

T3: human FcγRIIb (human, UniProt P31994 43-217, limits assumed)
T3 construct: also called hFcgRIIb; FcγIIB
T3 sequence: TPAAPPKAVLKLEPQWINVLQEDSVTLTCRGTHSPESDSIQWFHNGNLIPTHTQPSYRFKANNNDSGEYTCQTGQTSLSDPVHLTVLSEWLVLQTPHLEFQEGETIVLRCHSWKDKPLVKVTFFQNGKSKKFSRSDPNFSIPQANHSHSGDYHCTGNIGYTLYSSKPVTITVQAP


Key:
[1] = target: T1, human FcγRIIa(R); assay: SPR, antibody captured by Protein L, human FcγR as analyte, pH 7.4, 25 C
[2] = target: T4, human FcγRIa (human, UniProt P12314 16-292, limits assumed); assay: as above
T4 construct: also called hFcgRIa; hFcgRI

[3] = target: T2, human FcγRIIa(H); assay: as above
[4] = target: T3, human FcγRIIb; assay: as above
[5] = target: T1, human FcγRIIa(R); assay: as above
[6] = target: T4, human FcγRIa; assay: as above; remark: listed apart in the source
[7] = target: T2, human FcγRIIa(H); assay: as above; remark: listed apart in the source
[8] = target: T3, human FcγRIIb; assay: as above; remark: listed apart in the source
[9] = target: T5, human FcRn (soluble human FcRn complexed with β2-microglobulin) (human, UniProt P61769 21-119, limits assumed); assay: SPR, antibody captured by Protein L, human FcRn as analyte, pH 7.0, 25 C
T5 construct: also called hFcRn

[10] = target: T5, human FcRn (soluble human FcRn …); assay: as above; remark: listed apart in the source
[11] = target: T6, human FcRn (complex with human β2-microglobulin) (human, UniProt P61769 21-119, limits assumed); assay: hFcRn KD, method not given
T6 construct: soluble human FcRn complexed with β2-microglobulin was used; also called hFcRn

T4 sequence (P12314 16-292 limits assumed): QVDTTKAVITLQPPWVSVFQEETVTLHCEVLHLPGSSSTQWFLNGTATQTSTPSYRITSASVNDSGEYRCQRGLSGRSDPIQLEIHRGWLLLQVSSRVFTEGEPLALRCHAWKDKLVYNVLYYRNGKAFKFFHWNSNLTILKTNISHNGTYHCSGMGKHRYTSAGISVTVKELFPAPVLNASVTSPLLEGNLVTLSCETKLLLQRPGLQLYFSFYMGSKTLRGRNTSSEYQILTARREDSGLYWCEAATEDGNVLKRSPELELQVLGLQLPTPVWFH

BINDING AMOUNT (RU) [1] [RU]	BINDING AMOUNT (RU) [2] [RU]	BINDING AMOUNT (RU) [3] [RU]	BINDING AMOUNT (RU) [4] [RU]	BINDING AMOUNT (RU) [5] [RU]	BINDING AMOUNT (RU) [6] [RU]	BINDING AMOUNT (RU) [7] [RU]	BINDING AMOUNT (RU) [8] [RU]	Kd [9] [nM]	Kd [10] [nM]	Kd [11] [nM]	Binder
117	392	116	42.1	117	392	116	42.1	22	22	–	VH3/L(WT)-IgG1-F698 (antibody, name in EU numbering, copies: 2 + 2) heavy: QVQLQESGPGLVKPSETLSLTCAVSGHSISHDHAWSWVRQPPGEGLEWIGFISYSGITNYNPSLQGRVTISRDNSKNTLYLQMNSLRAEDTAVYYCARSLARTTAMDYWGEGTLVTVSSASTKGPSVFPLAPSSKSTSGGTAALGCLVKDYFPEPVTVSWNSGALTSGVHTFPAVLQSSGLYSLSSVVTVPSSSLGTQTYICNVNHKPSNTKVDKKVEPKSCDKTHTCPPCPAPELLGGPSVFLFPPKPKDTLYISRTPEVTCVVVDVSHEDPEVKFNWYVDGVEVHEAKTKPREEQYNSTYRVVSVLQVLHADWLNGKEYKCKVSNKALPAPIEKTISKAKGQPREPQVYTLPPSRDELTKNQVSLTCLVKGFYPSDIAVEWESNGQPENNYKTTPPVLDSDGSFFLYSKLTVDKSRWQQGNVFSCSVMHEALHYHYTQKSLSLSP light: not shown
–	–	–	–	–	–	–	–	–	–	11	antibody with heavy chain VH3-IgG1-FA6a (Heavy Chain A) (antibody, T250V/M252Y/T307Q/V308P/Q311A/D356K/E357K/N434Y/Y436V) heavy: QVQLQESGPGLVKPSETLSLTCAVSGHSISHDHAWSWVRQPPGEGLEWIGFISYSGITNYNPSLQGRVTISRDNSKNTLYLQMNSLRAEDTAVYYCARSLARTTAMDYWGEGTLVTVSSASTKGPSVFPLAPSSKSTSGGTAALGCLVKDYFPEPVTVSWNSGALTSGVHTFPAVLQSSGLYSLSSVVTVPSSSLGTQTYICNVNHKPSNTKVDKKVEPKSCDKTHTCPPCPAPELLGGPSVFLFPPKPKDVLYISRTPEVTCVVVDVSHEDPEVKFNWYVDGVEVHNAKTKPREEQYNSTYRVVSVLQPLHADWLNGKEYKCKVSNKALPAPIEKTISKAKGQPREPQVYTLPPSRKKLTKNQVSLTCLVKGFYPSDIAVEWESNGQPENNYKTTPPVLDSDGSFFLYSKLTVDKSRWQQGNVFSCSVMHEALHYHVTQKSLSLSP light: not shown
